Blank lines part the entries; values can stand above or below the molecule they belong to.
Legend:
[1] = target: SsoNPfuCMCM, chimeric MCM of the N-terminal domain of SsoMCM fused with the ATPase domain of PfuMCM (Sulfolobus solfataricus | not stated) (UniProt Q9UXG1); experiment: SEC-MALS; SEC-MALLS, Superose S6 Increase 10/300 GL, 200 mM KCl, 50 mM Tris-Cl pH 8.0, 5% glycerol, 0.5 mM DTT; 100 ul protein at 1 to 10 mg/ml; no ligands
[2] = target: MacMCM triple site minus-SB mutant (D311K, D366K, R543E); experiment: analytical size-exclusion chromatography (SEC), self-association; conditions: Protein samples (10 μM); Superdex S200 Increase 10/300 GL; UV absorbance at 280 nm; parent: est. 13.1; read off a plot
[3] = target: MacMCM^E391Q, Walker B mutant of MacMCM (Mancarchaeum acidiphilum); experiment: SEC; analytical SEC, Superose 6 Increase 10/300 GL, 200 mM NaCl, 20 mM Tris pH 8.0, 5% glycerol; protein 10 uM with equimolar fluorescein-polyT50 ssDNA; 1 mM ATP and 10 mM MgCl2 in the buffer
[4] = target: MacMCM, minichromosome maintenance protein from Mancarchaeum acidiphilum (Mancarchaeum acidiphilum); experiment: as above
[5] = target: MacMCM NDSK (plus-SB mutant N484D–S532K); experiment: analytical size-exclusion chromatography (SEC), self-association; conditions: Protein samples (10 μM); Superdex S200 Increase 10/300 GL; UV absorbance at 280 nm; parent: est. 13.1; read off a plot
[6] = target: MacMCM D366K (minus-SB mutant); experiment: as above; conditions: Protein samples (10 μM); Superdex S200 Increase 10/300 GL; UV absorbance at 280 nm; parent: est. 13.1; read off a plot
MacMCM^ΔWHD [7] = target: T1, MacMCM^ΔWHD (Candidatus Mancarchaeum acidiphilum, UniProt A0A218NN99, E391Q, form not given); experiment: X-ray crystal structure, […] Å; assay type: binding; conditions: crystals grown with 10 mM ATP and 10 mM MgCl2; nucleotide modelled as ADP; ATPase site at subunit interface, five of six sites
T1 construct: gene Mia14_0611

MacMCM^ΔWHD [8] = target: T1, MacMCM^ΔWHD; experiment: analytical SEC: ATP-dependent hexamer formation with ssDNA; assay type: binding; conditions: 1 mM ATP, 10 mM MgCl2, FAM-polyT50 ssDNA, pH 8.0; Walker B mutant, no ATP hydrolysis
MacMCM = target: T2, MacMCM (Candidatus Mancarchaeum acidiphilum, UniProt A0A218NN99, E391Q); experiment: as above; assay type: binding; conditions: 1 mM ATP, 10 mM MgCl2, FAM-polyT50 ssDNA, pH 8.0; Walker B mutant, no ATP hydrolysis
T2 construct: gene Mia14_0611; full length, codon-optimised gene, N-terminal His10 tag cut with TEV protease, from E. coli BL21(DE3) pLysS; monomer without ligands, homohexamer with ATP and DNA

[9] = target: MacMCM^ΔWHD.E391Q, MacMCM lacking the C-terminal winged-helix domain with the Walker B mutation E391Q (Mancarchaeum acidiphilum); experiment: SEC; analytical SEC, Superose 6 Increase 10/300 GL, 200 mM NaCl, 20 mM Tris pH 8.0, 5% glycerol; protein 10 uM with equimolar fluorescein-polyT50 ssDNA; 1 mM ATP and 10 mM MgCl2 in the buffer
[10] = target: MacMCM^ΔWHD.E391Q, MacMCM lacking the C-terminal winged-helix domain with the Walker B mutation E391Q (Mancarchaeum acidiphilum); experiment: crystal structure; MacMCM^ΔWHD.E391Q crystallised with 10 mM ATP and 10 mM MgCl2, 20 °C; ADP and phosphate in the active sites; 2.59 Å
[11] = target: MacMCM KRED (plus-SB mutant K476R–E537D); experiment: analytical size-exclusion chromatography (SEC), self-association; conditions: Protein samples (10 μM); Superdex S200 Increase 10/300 GL; UV absorbance at 280 nm; parent: est. 13.1; read off a plot
[12] = target: MacMCM DNEK (plus-SB mutant D59N–E61K); experiment: as above; conditions: Protein samples (10 μM); Superdex S200 Increase 10/300 GL; UV absorbance at 280 nm; parent: est. 13.1; read off a plot
[13] = target: MacMCM D311K (minus-SB mutant); experiment: as above; conditions: Protein samples (10 μM); Superdex S200 Increase 10/300 GL; UV absorbance at 280 nm; parent: est. 13.1; read off a plot
[14] = test system: MacMCMΔWHD E391Q (Mancarchaeum acidophilum), PDB:8Q67_1; experiment: fluorescence anisotropy; conditions: Anisotropy: 250 mM potassium glutamate, 20 mM Tris pH 8.0, 1 nM forked DNA, with 4 mM nucleotide and 10 mM MgCl2 where present; temperature not stated (EMSA …)
[15] = test system: MacMCM E391Q (Mancarchaeum acidophilum); experiment: fluorescence anisotropy; conditions: Anisotropy: 250 mM potassium glutamate, 20 mM Tris pH 8.0, 1 nM forked DNA, with 4 mM nucleotide and 10 mM MgCl2 where present; temperature not stated (EMSA …)
[16] = target: MacMCM R543E (minus-SB mutant); experiment: analytical size-exclusion chromatography (SEC), self-association; conditions: Protein samples (10 μM); Superdex S200 Increase 10/300 GL; UV absorbance at 280 nm; parent: est. 13.1; read off a plot
[17] = target: T3, MacMCM triple-site plus-SB mutant (D59N–E61K, K476R–E537D, N484D–S532K); experiment: as above; conditions: chain shown with the change; Protein samples (10 μM); Superdex S200 Increase 10/300 GL; UV absorbance at 280 nm; parent: est. 13.1; read off a plot
T3 chain: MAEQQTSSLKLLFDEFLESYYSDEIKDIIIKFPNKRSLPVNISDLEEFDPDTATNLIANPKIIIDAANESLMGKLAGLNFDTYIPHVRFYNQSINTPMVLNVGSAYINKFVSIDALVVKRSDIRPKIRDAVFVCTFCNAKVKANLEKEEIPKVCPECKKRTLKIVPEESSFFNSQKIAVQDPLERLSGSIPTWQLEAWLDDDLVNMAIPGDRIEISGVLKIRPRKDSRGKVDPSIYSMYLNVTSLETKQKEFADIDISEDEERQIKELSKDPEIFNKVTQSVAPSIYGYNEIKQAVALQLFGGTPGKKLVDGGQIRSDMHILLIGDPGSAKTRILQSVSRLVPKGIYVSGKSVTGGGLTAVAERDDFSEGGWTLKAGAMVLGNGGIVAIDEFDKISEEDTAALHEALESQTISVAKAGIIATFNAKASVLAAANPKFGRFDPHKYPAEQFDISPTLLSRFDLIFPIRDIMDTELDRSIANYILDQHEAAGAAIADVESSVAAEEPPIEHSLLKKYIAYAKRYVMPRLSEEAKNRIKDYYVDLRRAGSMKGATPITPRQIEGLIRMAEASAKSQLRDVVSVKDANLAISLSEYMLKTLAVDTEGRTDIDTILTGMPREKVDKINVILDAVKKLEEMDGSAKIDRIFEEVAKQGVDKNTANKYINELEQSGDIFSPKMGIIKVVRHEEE

T1 sequence (A0A218NN99 entry or part of it E391Q, form open): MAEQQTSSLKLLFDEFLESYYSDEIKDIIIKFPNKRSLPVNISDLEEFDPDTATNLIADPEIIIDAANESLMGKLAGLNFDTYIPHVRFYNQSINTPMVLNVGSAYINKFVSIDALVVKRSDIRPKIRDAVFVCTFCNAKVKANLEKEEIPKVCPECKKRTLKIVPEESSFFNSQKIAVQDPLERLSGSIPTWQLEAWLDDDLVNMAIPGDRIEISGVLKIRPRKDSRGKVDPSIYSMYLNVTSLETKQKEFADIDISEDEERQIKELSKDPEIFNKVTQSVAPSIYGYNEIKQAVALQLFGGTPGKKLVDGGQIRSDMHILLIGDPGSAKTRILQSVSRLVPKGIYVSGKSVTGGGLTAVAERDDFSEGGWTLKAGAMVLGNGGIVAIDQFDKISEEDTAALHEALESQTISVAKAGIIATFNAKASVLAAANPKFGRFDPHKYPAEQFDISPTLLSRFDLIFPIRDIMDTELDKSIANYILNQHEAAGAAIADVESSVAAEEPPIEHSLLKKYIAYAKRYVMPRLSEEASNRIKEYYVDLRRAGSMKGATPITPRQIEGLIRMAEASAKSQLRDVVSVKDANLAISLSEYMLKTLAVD
T2 sequence (A0A218NN99 entry or part of it E391Q): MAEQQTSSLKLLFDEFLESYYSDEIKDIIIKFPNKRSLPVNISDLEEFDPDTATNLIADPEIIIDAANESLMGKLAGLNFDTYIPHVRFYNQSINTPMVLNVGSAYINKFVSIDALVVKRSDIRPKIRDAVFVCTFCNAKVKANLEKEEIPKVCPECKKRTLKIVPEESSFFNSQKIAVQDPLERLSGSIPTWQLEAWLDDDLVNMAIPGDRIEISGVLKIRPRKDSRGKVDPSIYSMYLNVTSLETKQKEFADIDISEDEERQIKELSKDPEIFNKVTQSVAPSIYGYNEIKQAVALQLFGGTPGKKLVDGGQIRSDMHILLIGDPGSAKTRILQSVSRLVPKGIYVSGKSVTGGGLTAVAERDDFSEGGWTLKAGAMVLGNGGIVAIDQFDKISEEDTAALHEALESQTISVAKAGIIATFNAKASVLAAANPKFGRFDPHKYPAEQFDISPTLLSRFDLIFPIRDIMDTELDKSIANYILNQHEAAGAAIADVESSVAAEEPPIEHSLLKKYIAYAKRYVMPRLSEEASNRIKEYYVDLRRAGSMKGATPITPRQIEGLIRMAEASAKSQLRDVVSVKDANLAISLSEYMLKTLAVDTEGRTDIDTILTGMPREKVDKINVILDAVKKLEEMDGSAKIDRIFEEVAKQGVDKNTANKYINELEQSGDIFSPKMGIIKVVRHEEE

stoichiometry N [1]: 6
Molecule: SsoNPfuCMCM, chimeric MCM of the N-terminal domain of SsoMCM fused with the ATPase domain of PfuMCM (from UniProt Q9UXG1 2-321) (enzyme)

other: SEC peak retention volume [2]: 13.3 mL
Molecule: MacMCM, minichromosome maintenance protein from Mancarchaeum acidiphilum D311K; D366K; R543E

stoichiometry N [3]: 6
Molecule: MacMCM^E391Q, Walker B mutant of MacMCM (enzyme)

stoichiometry N [4]: 6
Molecule: MacMCM, minichromosome maintenance protein from Mancarchaeum acidiphilum (enzyme)

other: SEC peak retention volume [5]: 13 mL
Molecule: MacMCM, minichromosome maintenance protein from Mancarchaeum acidiphilum N484D; S532K

other: SEC peak retention volume [6]: 13.4 mL
Molecule: MacMCM, minichromosome maintenance protein from Mancarchaeum acidiphilum D366K

Molecule: Nc1ncnc2c1ncn2[C@@H]1O[C@H](COP(=O)(O)OP(=O)(O)O)[C@@H](O)[C@H]1O [ADP]
X-ray crystal structure, 2.6 Å (MacMCM^ΔWHD [7]): ADP was identified in five of the six ATPase active sites

Molecule: Nc1ncnc2c1ncn2[C@@H]1O[C@H](COP(=O)(O)OP(=O)(O)OP(=O)(O)O)[C@@H](O)[C@H]1O [ATP]
analytical SEC: ATP-dependent hexamer formation with ssDNA (MacMCM^ΔWHD [8]): both MacMCM^E391Q and MacMCM^ΔWHD.E391Q coeluted with ssDNA at elution volumes consistent with a homohexamer
analytical SEC: ATP-dependent hexamer formation with ssDNA (MacMCM): both MacMCM^E391Q and MacMCM^ΔWHD.E391Q coeluted with ssDNA at elution volumes consistent with a homohexamer

stoichiometry N [9]: 6
stoichiometry N [10]: 6
Molecule: MacMCM^ΔWHD.E391Q, MacMCM lacking the C-terminal winged-helix domain with the Walker B mutation E391Q (domain or fragment)

other: SEC peak retention volume [11]: 13.3 mL
Molecule: MacMCM, minichromosome maintenance protein from Mancarchaeum acidiphilum K476R; E537D

other: SEC peak retention volume [12]: 12.9 mL
Molecule: MacMCM, minichromosome maintenance protein from Mancarchaeum acidiphilum D59N; E61K

other: SEC peak retention volume [13]: 13.4 mL
Molecule: MacMCM, minichromosome maintenance protein from Mancarchaeum acidiphilum D311K

Molecule: GGGACGCGTCGGCCTGGCACGTCGGCCGCTGCGGCCAGGCACCCGATGGCGTTTGTTTGTTTGTTTGTTTGTTT / TTTGTTTGTTTGTTTGTTTGTTTGTTTGTTTGCCGACGTGCCAGGCCGACGCGTCCC [forked DNA]
Kd [14]: 114 nM
Kd [15]: 780 nM

other: SEC peak retention volume [16]: 13.3 mL
Molecule: MacMCM, minichromosome maintenance protein from Mancarchaeum acidiphilum R543E

other: SEC peak retention volume [17]: 11.6 mL
B1: MacMCM, minichromosome maintenance protein from Mancarchaeum acidiphilum D59N; E61K; K476R; E537D; N484D; S532K (protein)
chain: MAEQQTSSLKLLFDEFLESYYSDEIKDIIIKFPNKRSLPVNISDLEEFDPDTATNLIANPKIIIDAANESLMGKLAGLNFDTYIPHVRFYNQSINTPMVLNVGSAYINKFVSIDALVVKRSDIRPKIRDAVFVCTFCNAKVKANLEKEEIPKVCPECKKRTLKIVPEESSFFNSQKIAVQDPLERLSGSIPTWQLEAWLDDDLVNMAIPGDRIEISGVLKIRPRKDSRGKVDPSIYSMYLNVTSLETKQKEFADIDISEDEERQIKELSKDPEIFNKVTQSVAPSIYGYNEIKQAVALQLFGGTPGKKLVDGGQIRSDMHILLIGDPGSAKTRILQSVSRLVPKGIYVSGKSVTGGGLTAVAERDDFSEGGWTLKAGAMVLGNGGIVAIDEFDKISEEDTAALHEALESQTISVAKAGIIATFNAKASVLAAANPKFGRFDPHKYPAEQFDISPTLLSRFDLIFPIRDIMDTELDRSIANYILDQHEAAGAAIADVESSVAAEEPPIEHSLLKKYIAYAKRYVMPRLSEEAKNRIKDYYVDLRRAGSMKGATPITPRQIEGLIRMAEASAKSQLRDVVSVKDANLAISLSEYMLKTLAVDTEGRTDIDTILTGMPREKVDKINVILDAVKKLEEMDGSAKIDRIFEEVAKQGVDKNTANKYINELEQSGDIFSPKMGIIKVVRHEEE

From PMC13049513, “Assembly of a homohexameric minichromosome maintenance complex is dependent on ATP and DNA” (The Journal of Biological Chemistry, 2025)
